Results published in US20060281899A1, “Mutants of biotin binding protein” (priority 2002, published 2006).
Several values for one entry are separate records, joined by “and”; a condition that tells them apart may be missing. Identical values can stand only once. Like-named read-outs stand apart in the source and are kept apart here.

Assays:
[1] = Non-reducing SDS-PAGE thermostability, oligomeric forms after boiling; format: physicochemical; settings: boiled 20 minutes
Procedure: (§1) The heat stability of the AVRs was studied by using an SDS-PAGE-based method (Bayer, E. A., Ehrlich-Rogozinski, S. and Wilchek, M. (1996) Electrophoresis 17, 1319-1324). In this method, each protein sample was divided into two fractions one of which was kept biotin-free and the other was supplemented with an excess of biotin. The samples were then mixed with denaturing SDS-PAGE sample buffer (containing β-mercaptoethanol) and incubated at a given temperature for 20 minutes. After heat treatment, the samples were subjected to SDS-PAGE and visualised by staining with Coomassie brilliant blue. The relative proportions of tetrameric and monomeric forms of the AVR proteins (with avidin as the control) were detected. A similar assay, with β-mercaptoethanol omitted from the sample buffer, was performed to examine the presence of intersubunit disulfide-bridges. Sensitivity to proteinase K was studied both in the absence and in the presence of biotin as described (Laitinen, O. H., Airenne, K. J., Marttila, A. T., Kulik, T., Porkka, E., Bayer, E. A., Wilchek, M. and Kulomaa, M. S. (1999) FEBS Lett. 461, 52-8). The isoelectric point of each AVR was determined by isoelectric focusing as previously reported (Marttila, A. T., Airenne, K. J., Laitinen, O. H., Kulik, T., Bayer, E. A., Wilchek, M. and Kulomaa, M. S. (1998) FEBS Lett. 441, 313-317). The glycosylation patterns of the AVR proteins were studied by treating the proteins with Endo Hf and PNGase F glycosidase according to the manufacturer's instructions (New England Biolabs, Mass., USA).

[2] = Isoelectric focusing; format: physicochemical
Procedure: as §1

[3] = IASyS optical biosensor, AVR binding in a biotin cuvette; settings: for Kd: biotin cuvette, 20.0° C.; for kass / kdiss: biotin cuvette (as for Kd of these proteins)
Procedure: The biotin-binding characteristics of the AVR proteins were studied as previously described using the IASyS optical biosensor (Marttila, A. T., Airenne, K. J., Laitinen, O. H., Kulik, T., Bayer, E. A ., Wilchek, M. and Kulomaa, M. S. (1998) FEBS Lett. 441, 313-317; Laitinen, O. H., Airenne, K. J., Marttila, A. T., Kulik, T., Porkka, E., Bayer, E. A., Wilchek, M. and Kulomaa, M. S. (1999) FEBS Lett. 461, 52-8). Affinities were measured for 2-iminobiotin or biotin at 20.0° C. using a stirring power of 100%. Briefly, the protein under study in biotin-free buffer was allowed to bind to the biotin-coated surface of the IASyS cuvette. As a negative control, the protein under study was saturated with excess biotin prior to (and was also maintained under biotin excess upon) addition to the cuvette. Under these conditions, residual binding to the biotin surface of the cuvette could be regarded as unspecific, and was used as a measure of baseline variation. Binding equilibrium in the experimental cuvette was considered to be attained after no binding was detected as compared to negative control.
The actual dissociation constants (Kd) were calculated for the AVRs according to the kass and kdiss rates measured in a separate assay in different protein concentrations (varying between 10 μM and 100 pM) (Table 4 and FIG. 6). The binding seemed to follow two-order or even more complex kinetics. However, the first 1000 seconds of the binding fitted considerably well to the bi-phasic curve. All measured dissociation rate constants (kdiss) followed the first-order kinetics. Because of the extremely high binding, affinities of the AVRs for biotin could not be determined except for AVR1, AVR2 and AVR7. Binding to 2-iminobiotin was determined only for AVR4/5, and it was similar to that of avidin. The lack of binding for the other AVRs was surprising, since most of them were purified using 2-iminobiotin agarose.

[4] = IASyS reversibility of biotin binding of avidin and AVRs; settings: biotin cuvette, after addition of free biotin (0.17 mg/ml)
Procedure: The reversibility of biotin binding was studied as follows: Avidin and the AVRs were allowed to bind to a biotin-coated cuvette. After measuring the initial binding (A) as described above, biotin-saturated (0.17 mg/ml) buffer was injected into the cuvette and the amount of proteins remaining bound was measured until no dissociation was seen, again as compared to the negative control cuvette (B). The measurement time was at least 20 minutes. The percent reversibility was calculated as follows: reversibility (%)=100*(A−B)/A. A−B is the amount of liberated proteins after biotin adding.

[5] = Differential scanning calorimetry of avidin and AVR4/5 forms; format: physicochemical
Procedure: The thermodynamics of the heat-induced unfolding of the proteins were studied using DSC. The transition midpoint of heat-induced denaturation (Tm) of the avidin and different AVR4/5 forms was studied using a Nano II differential scanning calorimeter (Calorimetric Sciences Corporation, Provo, Utah, USA). The reference cell was filled with buffer whereas the sample cell was filled with proteins dissolved in 50 mM sodium phosphate buffer, pH 7.0 containing 100 mM NaCl. Avidin and AVR4/5(C124S) were also analyzed in 50 mM Na-acetate pH 4.0 containing 100 mM NaCl. Furthermore, AVR4/5 was analyzed in the presence of 2-mercaptoethanol (0.4% v/v). The samples (1.6-9.6 μM) were analyzed both in the absence and presence of a three fold molar excess of biotin/subunit. All samples were degassed before being loaded into the DSC. The thermograms were recorded as a function of temperature; between 25 and 130° C. at a rate of 55.6° C./h (Gonzalez, M., Argarana, C. E. & Fidelio, G. D. (1999) Biomol. Eng. 16, 67-72; Nordlund, H. R., Laitinen, O. H., Uotila, S. T., Nyholm, T., Hytönen, V. P., Slotte, J. P. & Kulomaa, M. S. (2003) J. Biol. Chem. 278, 2479-2483). Data was analyzed using Microcal Origin 6.0 and Cpcalc 2.1 (Applied Thermodynamics, Hunt Valley, Md.). The change in heat capacity upon unfolding (ΔCp) was measured for avidin and AVR4/5(C124S) using DSC data from measurements in pH 4.0 and 7.0. ΔCp was then obtained from the slope of ΔH vs. Tm (Liu, Y. & Sturtevant, J. M. (1996) Biochemistry 35, 3059-3062).

[6] = read-out: Kd calculated from the equilibrium response data
[7] = read-out: Kd calculated directly from the binding curves

B1: AVR3: Recombinant chicken avidin-related protein 3, produced in Sf9 insect cells (protein, UniProt P56733 25-150, looked up)
Avidin-related protein 3: ARKCSLTGKWTNNLGSIMTIRAVNSRGEFAGTYLTAVADNPGNIKLSPLLGIQHKRACQPTFGFTVHWNFSESTSVFVGQCFIDRSGKEVLKTKWLQRLAVDDISDDWKATRVGYNNFTRQRTVEE
Dimeric form, relative proportion [1]: 50 percentage | Monomeric form, relative proportion [1]: 50 percentage | pI by isoelectric focusing [2]: ≈ 10 | Kd [3, 6]: < 10 nM | Reversibility of biotin binding [4]: 3 ± 2%

B2: AVR1: Recombinant chicken avidin-related protein 1, produced in Sf9 insect cells (protein, UniProt O13153 25-150, looked up)
Avidin-related protein 1: ARKCSLTGKWDNDLGSIMTIGAVNDNGEFNGTYITAVADNPGNITRSPLLGIQHKRACQPTFGFTVHWNFSESTSVFVGQCFVDKSGKEVLKTKWLQRLAVDDISDDWKATRVGNNDFTRQRTVEE
Dimeric form, relative proportion [1]: 40 percentage | Monomeric form, relative proportion [1]: 40 percentage | Tetrameric form, relative proportion [1]: 20 percentage | pI by isoelectric focusing [2]: ≈ 7 | kass [3]: (5.5 ± 1.5) × 10^4 M^−1 s^−1 | kdiss [3]: (2.4 ± 0.8) × 10^−3 s^−1 | Kd [3, 7]: 44 nM | Kd [3, 6]: 100 nM | Reversibility of biotin binding [4]: 18% and 18 ± 10%

B3: AVR2: Recombinant chicken avidin-related protein 2, produced in Sf9 insect cells (protein, UniProt P56732 25-150, looked up)
Avidin-related protein 2: ARKCSLTGEWDNDLGSIMTIGAVNDNGEFDGTYITAVADNPGNITLSPLLGIQHKRASQPTFGFTVHWNFSESTSVFVGQCFVDRSGKEVLKTKWLQRLAVDDISDDWIATRVGNNDFTRQHTVEE
Monomeric form, relative proportion [1]: 100 percentage | pI by isoelectric focusing [2]: ≈ 5 | kass [3]: (1.8 ± 0.1) × 10^4 M^−1 s^−1 | kdiss [3]: (4.6 ± 1.1) × 10^−3 s^−1 | Kd [3, 7]: 52 nM | Kd [3, 6]: 1700 nM | Reversibility of biotin binding [4]: 94 ± 3%

B4: AVR6: Recombinant chicken avidin-related protein 6, produced in Sf9 insect cells (protein, UniProt P56735 25-150, looked up)
Avidin-related protein 6: ARKCSLTGEWDNNLGSIMTIGAVNDNGEFNGTYITAVADNPGNIKLSPLLGIQHKRACQPTFGFTVHWNFSESTSVFVGQCFVDRSGKEVLKTKWLQRLAVDDISDDWKATRVGYNNFTRQRTVEE
Dimeric form, relative proportion [1]: 50 percentage | Monomeric form, relative proportion [1]: 50 percentage | pI by isoelectric focusing [2]: ≈ 7 | Kd [3, 6]: < 10 nM | Reversibility of biotin binding [4]: 5 ± 3%

B5: AVR7: Recombinant chicken avidin-related protein 7, produced in Sf9 insect cells (protein, UniProt P56736 25-150, looked up)
Avidin-related protein 7: ARKCSLTGEWDNNLGSNMTIGAVNDNGEFNGTYITAVADNPGNIKLSPLLGIQHKRACQPTFGFTVHWNFSESTSVFVGQCFIDRSGKEVLKTKWLQRLAVDDISDDWKATRVGYNNFTRQRTVEE
Dimeric form, relative proportion [1]: 20 percentage | Monomeric form, relative proportion [1]: 80 percentage | pI by isoelectric focusing [2]: ≈ 7 | kass [3]: (1.8 ± 0.2) × 10^5 M^−1 s^−1 | Kd [3, 6]: 4.5 nM | Reversibility of biotin binding [4]: 3 ± 3%

B6: AVR4/5 + 2-mercaptoethanol: AVR4/5 analyzed in the presence of 2-mercaptoethanol (0.4% v/v) (protein, UniProt P56734 25-150, looked up)
Avidin-related protein 4/5: ARKCSLTGKWTNNLGSIMTIRAVNSRGEFTGTYLTAVADNPGNITLSPLLGIQHKRASQPTFGFTVHWNFSESTTVFTGQCFIDRNGKEVLKTMWLLRSSVNDISYDWKATRVGYNNFTRLCTVEE
modifications: with 2-mercaptoethanol
DSC Tm(−biotin) ([5]; 50 mM sodium phosphate pH 7.0, 100 mM NaCl): 106.5 ± 0.3 °C | ΔTm ([5]; change in Tm upon addition of a three-fold molar excess of biotin): 18.7 °C | ΔH of unfolding ([5]; sample without biotin): 708 ± 26 kJ/mol | DSC Tm (+biotin) ([5]; three-fold molar excess of biotin, pH 7.0): 125.2 ± 0.1 °C
